Test results reported in article PMC9270373.
Square brackets hold non-standard residues; d marks the D form. Ends that are not written are not given here. pT = C[C@@H](OP(=O)(O)O)[C@H](N)C(=O)O

What was measured:
[1] = biological target: potato 14-3-3 protein St14f (Solanum tuberosum L. (potato)); experiment: crystal structure; St14f free form, 2.5 Å; hanging drop, 12% (w/v) PEG 8000, 0.2 M ammonium tartrate pH 7, 277 K; three chains (A, B, C) in the asymmetric unit, dimers AA and BC
[2] = biological target: St14f D217A (Solanum tuberosum L. (potato)); experiment: thermal shift assay; 10 µM St14f with no and with 100 µM StFDL1 peptide; SYPRO Orange; 10 mM HEPES pH 7.5, 0.15 M NaCl; heated from 25 to 99 °C; ΔTm = melting temperature difference with and without the peptide
[3] = biological target: St14f I221A M222A (Solanum tuberosum L. (potato)); experiment: as above
[4] = biological target: St14f L229A (Solanum tuberosum L. (potato)); experiment: as above
[5] = biological target: St14f S214L (Solanum tuberosum L. (potato)); experiment: as above
[6] = biological target: St14f S214M (Solanum tuberosum L. (potato)); experiment: as above
[7] = biological target: St14f S214T (Solanum tuberosum L. (potato)); experiment: as above
[8] = biological target: St14f S218G (Solanum tuberosum L. (potato)); experiment: as above
[9] = biological target: St14f S218L (Solanum tuberosum L. (potato)); experiment: as above
[10] = biological target: St14f S218M (Solanum tuberosum L. (potato)); experiment: as above
[11] = biological target: St14f Y215A (Solanum tuberosum L. (potato)); experiment: as above
[12] = biological target: potato 14-3-3 protein St14f (Solanum tuberosum L. (potato)); experiment: as above

stoichiometry N [1]	ΔTm [2] [°C]	ΔTm [3] [°C]	ΔTm [4] [°C]	ΔTm [5] [°C]	ΔTm [6] [°C]	ΔTm [7] [°C]	ΔTm [8] [°C]	ΔTm [9] [°C]	ΔTm [10] [°C]	ΔTm [11] [°C]	ΔTm [12] [°C]	Molecule
2	–	–	–	–	–	–	–	–	–	–	–	potato 14-3-3 protein St14f (natural protein)
–	6.67	4.63	6.22	4.26	3.6	4.01	6.37	7.61	7.48	4.42	4.03	LNRTS[pT]APF [StFDL1 peptide (LNRTSpTAPF)]
